Results from patent US20150258192A1, “COMPOSITIONS AND METHODS FOR PREVENTING OR TREATING CHRONIC LUNG ALLOGRAFT DYSFUNCTION (CLAD) AND IDIOPATHIC PULMONARY FIBROSIS (IPF)” (priority 2014, published 2015).
No end group written: not given here.

How the values were obtained:
Test in all cases: Kinase Profiling Assay
Format in all cases: biochemical
Conditions in all cases: peptide 100 μM
Flt1(h) = Flt1(h) (Homo sapiens, UniProt P17948)
In short: (§1)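 Specificity of MK2 inhibitory peptides is assessed against a panel of 266 human kinases. Kinase transfers a radiolabeled phosphate from ATP onto a positively charged substrate, which is trapped on a negatively charged filter and quantified by scintillation counting against full-activity control; duplicate determinations.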

NEK2(h) = target: T1, NEK2(h) (Homo sapiens, UniProt P51955)
T1 construct: purchased Millipore
T1 sequence (P51955 1-445): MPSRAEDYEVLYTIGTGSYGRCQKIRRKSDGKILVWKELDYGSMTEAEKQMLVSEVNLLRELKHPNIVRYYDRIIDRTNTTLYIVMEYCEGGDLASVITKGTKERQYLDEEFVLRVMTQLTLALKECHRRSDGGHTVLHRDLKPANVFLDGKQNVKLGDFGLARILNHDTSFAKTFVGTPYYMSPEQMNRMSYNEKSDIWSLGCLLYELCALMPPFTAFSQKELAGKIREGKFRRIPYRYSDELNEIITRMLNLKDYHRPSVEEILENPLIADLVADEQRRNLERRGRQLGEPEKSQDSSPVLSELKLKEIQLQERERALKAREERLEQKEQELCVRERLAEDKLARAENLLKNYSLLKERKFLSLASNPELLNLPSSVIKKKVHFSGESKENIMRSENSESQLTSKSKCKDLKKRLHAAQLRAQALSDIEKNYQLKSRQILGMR
In short: as §1

GRK6(h) = target: T2, GRK6(h) (Homo sapiens, UniProt P43250)
T2 construct: purchased Millipore
In short: as §1

PKCβII(h) = PKCβII(h) (Homo sapiens, UniProt P05771)
In short: as §1

SGK(h) = target: T3, SGK(h) (Homo sapiens, UniProt O00141)
T3 construct: purchased Millipore
T3 sequence (O00141 1-431): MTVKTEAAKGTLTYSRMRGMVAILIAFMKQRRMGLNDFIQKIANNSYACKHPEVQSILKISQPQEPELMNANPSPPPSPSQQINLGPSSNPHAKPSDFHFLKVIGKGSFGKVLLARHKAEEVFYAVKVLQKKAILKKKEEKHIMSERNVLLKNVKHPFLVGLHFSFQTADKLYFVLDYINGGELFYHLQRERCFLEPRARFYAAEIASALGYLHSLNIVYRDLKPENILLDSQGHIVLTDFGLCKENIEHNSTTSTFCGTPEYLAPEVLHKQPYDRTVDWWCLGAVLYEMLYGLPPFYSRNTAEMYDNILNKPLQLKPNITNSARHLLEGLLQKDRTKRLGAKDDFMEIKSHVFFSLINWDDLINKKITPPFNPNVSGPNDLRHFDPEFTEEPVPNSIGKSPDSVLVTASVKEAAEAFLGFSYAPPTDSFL
In short: as §1

Ax1(h) = Ax1(h) (Homo sapiens, UniProt P30530)
In short: as §1

PrKX(h) = target: T4, PrKX(h) (Homo sapiens, UniProt P51817)
T4 sequence (P51817 1-358): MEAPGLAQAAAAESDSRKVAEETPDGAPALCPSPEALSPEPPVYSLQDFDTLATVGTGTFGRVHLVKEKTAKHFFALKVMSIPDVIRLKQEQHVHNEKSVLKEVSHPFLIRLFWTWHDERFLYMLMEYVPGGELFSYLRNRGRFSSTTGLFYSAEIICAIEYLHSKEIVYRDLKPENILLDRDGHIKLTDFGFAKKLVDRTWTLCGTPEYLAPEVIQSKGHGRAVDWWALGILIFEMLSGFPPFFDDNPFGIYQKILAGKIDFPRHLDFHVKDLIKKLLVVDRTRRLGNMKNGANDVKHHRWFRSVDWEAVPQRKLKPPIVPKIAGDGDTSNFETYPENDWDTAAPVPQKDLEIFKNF
In short: as §1

Ret(V804M)(h) = Ret(V804M)(h) (Homo sapiens, UniProt P07949, V804M)
In short: as §1

CHK2(h) = CHK2(h) (Homo sapiens, UniProt O96017)
In short: as §1

JAK2(h) = target: T5, JAK2(h) (Homo sapiens, UniProt O60674)
T5 construct: purchased Millipore
In short: as §1

CaMKIV(h) = target: T6, CaMKIV(h) (Homo sapiens, UniProt Q16566)
T6 sequence (Q16566 1-473): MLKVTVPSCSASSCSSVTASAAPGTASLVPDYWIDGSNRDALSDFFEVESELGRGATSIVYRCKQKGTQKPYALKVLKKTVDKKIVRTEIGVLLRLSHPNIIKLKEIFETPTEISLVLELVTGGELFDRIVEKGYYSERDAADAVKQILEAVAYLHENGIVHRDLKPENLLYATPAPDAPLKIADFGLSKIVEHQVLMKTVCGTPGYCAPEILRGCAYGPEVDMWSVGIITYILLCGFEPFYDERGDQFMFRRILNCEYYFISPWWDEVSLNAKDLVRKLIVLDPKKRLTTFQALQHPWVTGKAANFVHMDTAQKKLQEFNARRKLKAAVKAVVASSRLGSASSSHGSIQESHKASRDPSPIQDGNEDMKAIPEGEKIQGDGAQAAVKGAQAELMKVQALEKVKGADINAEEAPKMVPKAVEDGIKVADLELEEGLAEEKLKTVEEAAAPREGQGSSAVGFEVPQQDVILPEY
In short: as §1

Chain of CHK2(h) (O96017 whole entry): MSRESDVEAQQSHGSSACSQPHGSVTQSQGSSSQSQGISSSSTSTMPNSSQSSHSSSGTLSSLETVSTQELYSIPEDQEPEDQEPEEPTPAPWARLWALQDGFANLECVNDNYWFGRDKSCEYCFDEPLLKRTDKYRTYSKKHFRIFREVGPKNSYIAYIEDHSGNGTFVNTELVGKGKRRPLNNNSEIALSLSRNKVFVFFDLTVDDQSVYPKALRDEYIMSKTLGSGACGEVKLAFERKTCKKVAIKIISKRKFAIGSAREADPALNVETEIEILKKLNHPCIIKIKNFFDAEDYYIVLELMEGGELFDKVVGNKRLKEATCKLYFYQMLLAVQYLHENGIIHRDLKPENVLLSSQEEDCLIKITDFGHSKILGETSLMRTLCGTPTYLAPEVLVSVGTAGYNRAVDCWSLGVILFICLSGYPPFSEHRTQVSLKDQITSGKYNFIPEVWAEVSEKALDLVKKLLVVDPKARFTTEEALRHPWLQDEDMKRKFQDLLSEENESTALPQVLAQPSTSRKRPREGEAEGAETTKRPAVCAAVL
T5 sequence (O60674 whole entry): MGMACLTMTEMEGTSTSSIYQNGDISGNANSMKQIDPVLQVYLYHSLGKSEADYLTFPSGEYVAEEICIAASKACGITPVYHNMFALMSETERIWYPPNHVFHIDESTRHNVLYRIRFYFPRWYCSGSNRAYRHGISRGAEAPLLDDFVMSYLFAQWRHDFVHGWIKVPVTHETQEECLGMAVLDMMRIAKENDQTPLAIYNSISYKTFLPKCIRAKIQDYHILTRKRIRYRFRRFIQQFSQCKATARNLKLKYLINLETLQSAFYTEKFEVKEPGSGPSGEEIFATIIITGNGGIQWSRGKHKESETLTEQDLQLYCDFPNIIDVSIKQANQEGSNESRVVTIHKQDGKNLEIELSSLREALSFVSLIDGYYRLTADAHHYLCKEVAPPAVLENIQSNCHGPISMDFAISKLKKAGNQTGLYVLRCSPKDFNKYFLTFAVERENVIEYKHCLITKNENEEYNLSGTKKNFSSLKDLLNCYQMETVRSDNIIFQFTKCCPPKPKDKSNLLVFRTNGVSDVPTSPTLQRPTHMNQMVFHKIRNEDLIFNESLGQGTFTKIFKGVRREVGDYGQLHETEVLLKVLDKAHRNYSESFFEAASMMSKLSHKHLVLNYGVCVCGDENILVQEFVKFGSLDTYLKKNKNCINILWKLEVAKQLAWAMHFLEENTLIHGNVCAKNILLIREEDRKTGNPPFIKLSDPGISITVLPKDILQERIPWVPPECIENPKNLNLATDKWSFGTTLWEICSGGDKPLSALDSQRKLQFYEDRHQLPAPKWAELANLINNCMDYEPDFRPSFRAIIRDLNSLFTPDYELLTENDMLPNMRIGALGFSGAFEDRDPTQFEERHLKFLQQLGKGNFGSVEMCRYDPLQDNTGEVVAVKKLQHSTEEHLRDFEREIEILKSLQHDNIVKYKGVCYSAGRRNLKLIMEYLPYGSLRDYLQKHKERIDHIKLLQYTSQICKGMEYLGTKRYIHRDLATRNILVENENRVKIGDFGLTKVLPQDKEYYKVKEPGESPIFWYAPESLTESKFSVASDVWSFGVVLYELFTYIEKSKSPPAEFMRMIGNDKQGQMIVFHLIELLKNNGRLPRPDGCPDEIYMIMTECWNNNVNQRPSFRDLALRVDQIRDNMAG
Chain of Flt1(h) (P17948 27-1338): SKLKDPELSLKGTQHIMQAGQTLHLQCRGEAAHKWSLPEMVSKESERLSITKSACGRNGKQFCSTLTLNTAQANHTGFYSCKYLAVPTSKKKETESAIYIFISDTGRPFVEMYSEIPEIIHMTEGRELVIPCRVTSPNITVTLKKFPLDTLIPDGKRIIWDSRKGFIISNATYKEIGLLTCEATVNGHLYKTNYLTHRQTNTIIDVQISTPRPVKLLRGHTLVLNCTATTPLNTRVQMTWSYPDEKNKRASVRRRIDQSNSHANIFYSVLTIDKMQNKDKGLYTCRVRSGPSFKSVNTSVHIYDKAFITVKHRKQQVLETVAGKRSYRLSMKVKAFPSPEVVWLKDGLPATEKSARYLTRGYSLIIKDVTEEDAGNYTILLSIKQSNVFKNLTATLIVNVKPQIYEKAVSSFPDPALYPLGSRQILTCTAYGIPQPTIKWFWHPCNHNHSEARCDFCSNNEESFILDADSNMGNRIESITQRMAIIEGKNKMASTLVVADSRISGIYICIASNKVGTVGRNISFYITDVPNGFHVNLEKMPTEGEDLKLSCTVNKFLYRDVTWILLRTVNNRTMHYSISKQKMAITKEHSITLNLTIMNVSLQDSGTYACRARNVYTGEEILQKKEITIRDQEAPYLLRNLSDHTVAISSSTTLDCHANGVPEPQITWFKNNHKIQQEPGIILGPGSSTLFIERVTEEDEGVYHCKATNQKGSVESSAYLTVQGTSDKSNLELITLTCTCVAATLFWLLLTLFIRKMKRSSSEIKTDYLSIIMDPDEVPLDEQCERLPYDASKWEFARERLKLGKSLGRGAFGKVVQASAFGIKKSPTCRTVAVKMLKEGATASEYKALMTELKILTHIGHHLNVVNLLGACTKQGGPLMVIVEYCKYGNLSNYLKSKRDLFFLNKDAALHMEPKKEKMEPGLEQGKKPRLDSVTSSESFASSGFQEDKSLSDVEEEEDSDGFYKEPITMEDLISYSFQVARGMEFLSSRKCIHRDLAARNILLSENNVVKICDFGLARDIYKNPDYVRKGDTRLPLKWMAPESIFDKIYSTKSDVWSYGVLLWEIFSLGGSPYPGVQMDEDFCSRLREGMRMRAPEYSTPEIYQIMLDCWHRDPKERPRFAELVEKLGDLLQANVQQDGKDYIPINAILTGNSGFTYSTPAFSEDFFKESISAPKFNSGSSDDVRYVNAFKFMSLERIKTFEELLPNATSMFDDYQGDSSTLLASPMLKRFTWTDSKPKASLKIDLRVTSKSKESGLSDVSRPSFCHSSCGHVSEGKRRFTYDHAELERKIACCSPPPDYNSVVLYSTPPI
T2 sequence (P43250 whole entry): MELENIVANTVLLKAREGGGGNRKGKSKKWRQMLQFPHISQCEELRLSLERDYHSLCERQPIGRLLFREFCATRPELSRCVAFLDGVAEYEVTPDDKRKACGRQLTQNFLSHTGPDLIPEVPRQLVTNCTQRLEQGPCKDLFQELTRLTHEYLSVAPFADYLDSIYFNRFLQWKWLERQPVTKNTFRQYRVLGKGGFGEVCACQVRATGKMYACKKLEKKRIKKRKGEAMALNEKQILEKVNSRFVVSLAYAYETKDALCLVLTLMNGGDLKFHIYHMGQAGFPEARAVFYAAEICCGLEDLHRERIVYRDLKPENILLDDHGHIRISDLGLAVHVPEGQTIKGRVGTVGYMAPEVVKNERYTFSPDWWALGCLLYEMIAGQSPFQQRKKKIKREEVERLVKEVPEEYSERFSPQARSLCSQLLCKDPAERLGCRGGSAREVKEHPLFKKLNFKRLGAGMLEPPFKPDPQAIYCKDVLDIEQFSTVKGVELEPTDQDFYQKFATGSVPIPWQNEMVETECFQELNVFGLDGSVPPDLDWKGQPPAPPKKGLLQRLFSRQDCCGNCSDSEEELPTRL
Chain of PKCβII(h) (P05771 1-673 isoform P05771-2): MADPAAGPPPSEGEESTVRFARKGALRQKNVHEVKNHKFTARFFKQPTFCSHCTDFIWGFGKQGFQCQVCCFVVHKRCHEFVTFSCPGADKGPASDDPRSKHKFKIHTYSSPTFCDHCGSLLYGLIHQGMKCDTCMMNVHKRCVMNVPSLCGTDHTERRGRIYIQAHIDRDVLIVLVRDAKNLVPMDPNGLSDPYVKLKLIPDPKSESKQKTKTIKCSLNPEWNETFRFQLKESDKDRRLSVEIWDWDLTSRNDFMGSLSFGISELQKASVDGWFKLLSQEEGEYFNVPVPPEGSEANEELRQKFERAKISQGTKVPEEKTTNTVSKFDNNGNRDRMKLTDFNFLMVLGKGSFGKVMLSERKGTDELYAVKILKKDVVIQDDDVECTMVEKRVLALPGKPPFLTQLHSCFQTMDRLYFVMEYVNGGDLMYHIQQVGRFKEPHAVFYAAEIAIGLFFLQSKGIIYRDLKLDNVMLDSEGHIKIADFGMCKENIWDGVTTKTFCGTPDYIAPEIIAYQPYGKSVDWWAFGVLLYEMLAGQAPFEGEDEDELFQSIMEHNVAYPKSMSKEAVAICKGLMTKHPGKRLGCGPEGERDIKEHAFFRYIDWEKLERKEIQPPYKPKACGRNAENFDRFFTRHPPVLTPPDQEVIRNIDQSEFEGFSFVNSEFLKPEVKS

Sequence | % activity (Flt1(h)) | % activity (NEK2(h)) | % activity (GRK6(h)) | % activity (PKCβII(h)) | % activity (SGK(h)) | % activity (Ax1(h)) | % activity (PrKX(h)) | % activity (Ret(V804M)(h)) | % activity (CHK2(h)) | % activity (JAK2(h)) | % activity (CaMKIV(h))
FAKLAARLYRKALARQLGVAA [MMI-0300] | 69% | 78% | 147% | 82% | 48% | 52% | 61% | 95% | 66% | 133% | 17%
HRRIKAWLKKIKALARQLGVAA (Mammal) [MMI-0500] | 27% | 0% | 174% | 3% | 2% | 12% | 57% | 36% | 13% | 49% | -1%
KAFAKLAARLYRKALARQLGVAA [MMI-0400] | 48% | 61% | 141% | 75% | 54% | 41% | 76% | 87% | 54% | – | 18%
YARAAARQARAKALARQLGVAA [MMI-0100] | – | – | 131% | – | 128% | 81% | 84% | 92% | – | 89% | –
YARAAARQARAKALNRQLGVA (Mammal) [MMI-0200] | 96% | 97% | 132% | 100% | – | 99% | – | – | – | 131% | 71%
